# Laboratory results published in the supplement of paper PMC7877785.
# ± gives the uncertainty stated by the source.
# Experiment: self-splicing fitness, log relative to wild type (ln ratio); higher = more splicing; Tetrahymena group I intron in knt gene, E. coli kanamycin selection, DiMSum; sequences stand for … in CUCUCU…GGAGGGAAAAGUUAUCAGGCAUGCACCUGGUAGCUAGUCUUUAAACCAAUAGAUUGCAUCGGUUUAAAAGGCAAGACCGUCAAAUUGCGGGAAAGGGGUCAACAGCCGUUCAGUACCAAGUCUCAGGGGAAACUUUGAGAUGGCCUUGCAAAGGGUAUGGUAAUAAGCUGACGGACAUGGUCCUAACCACGCAGCCAAGUCCUAAGUCAACAGAUCUUCUGUUGAUAUGGAUGCAGUUCACAGACUAAAUGUCGGUCGGGGAAGAUGUAUUCUUCUCAUAAGAUAUAGUCGGACCUCUCCUUAAUGGGAGCUAGCGGAUGAAGUGAUGCAACACUGGAGCCGCUGGGAACUAAUUUGUAUGCGAAAGUAUAUUGAUUAGUUUUGGAGUACUCGUGGUCG
# Procedure, shortened: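 DiMSum derived fitness as the error-weighted combination of fold changes across replicates, kanamycin versus no kanamycin, normalised to wild type. E. coli BL21(DE3) held the library, which randomised all eight P1ex-region intron nucleotides within the knt kanamycin-resistance gene on pET-22b(+). Six replicate transformations grew overnight at 37°C or 30°C on LB agar with or without 25 μg/mL kanamycin, also containing 100 μg/mL carbenicillin, 50 μM IPTG and 0.2% rhamnose, and pooled colonies were amplicon-sequenced on an Illumina HiSeq 2500.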
Sequence,self-splicing fitness (ln) (30 °C),self-splicing fitness (ln) (37 °C)
AAGGAGCAAUAUUACGCUUA,-1.49 ± 0.17,-1.1 ± 0.16
GAAAAGCAAUAUUACGUAUU,-3.24 ± 0.13,-2.16 ± 0.11
UACUAGCAAUAUUACGGGGA,-1.37 ± 0.14,-0.992 ± 0.12
CCAUAGCAAUAUUACGAAUU,-3.3 ± 0.23,-2.51 ± 0.39
GAAAAGCAAUAUUACGGUGC,-2.02 ± 0.12,-2.05 ± 0.18
CGUGAGCAAUAUUACGCUAA,–,-1.26 ± 0.48
AUGCAGCAAUAUUACGUAAU,-0.641 ± 0.05,-0.479 ± 0.066
CUCGAGCAAUAUUACGAUCU,-3.58 ± 0.25,-3.53 ± 0.26
UAGCAGCAAUAUUACGGAGA,-3.24 ± 0.33,-2.18 ± 0.14
GGGCAGCAAUAUUACGCUAU,-1.13 ± 0.077,-0.411 ± 0.094
AGUUAGCAAUAUUACGCUAA,-3.11 ± 0.43,-2.29 ± 0.41
UCACAGCAAUAUUACGAUCA,-1.45 ± 0.091,-0.503 ± 0.088
AUUUAGCAAUAUUACGAGCG,-2.66 ± 0.23,-1.05 ± 0.2
GUAUAGCAAUAUUACGAACU,-1.75 ± 0.23,0.477 ± 0.24
AGCUAGCAAUAUUACGCCAU,-1.92 ± 0.31,-1.91 ± 0.43
AACAAGCAAUAUUACGCGUG,-1.35 ± 0.04,-0.814 ± 0.056
AUUAAGCAAUAUUACGGAUU,-2.03 ± 0.12,-0.791 ± 0.15
GAACAGCAAUAUUACGCACA,-0.348 ± 0.082,-0.338 ± 0.094
ACGUAGCAAUAUUACGGACA,-1.1 ± 0.083,-0.739 ± 0.092
AACAAGCAAUAUUACGGGUC,-1.68 ± 0.14,-1.65 ± 0.17
GCUUAGCAAUAUUACGUUUC,-1.2 ± 0.099,-0.547 ± 0.11
AAAUAGCAAUAUUACGGGAG,-2.29 ± 0.14,-1.84 ± 0.19
ACGUAGCAAUAUUACGCACU,-1.46 ± 0.18,-0.549 ± 0.23
GGGCAGCAAUAUUACGCGUC,-2.55 ± 0.4,-1.71 ± 0.31
AACUAGCAAUAUUACGCCCA,-0.951 ± 0.14,0.0227 ± 0.17

Sequence,self-splicing fitness (ln) (30 °C),self-splicing fitness (ln) (37 °C)
AAGGAGCAAUAUUACGGUCG,-2.96 ± 0.22,–
UUCGAGCAAUAUUACGCGUC,-2.99 ± 0.23,-2.34 ± 0.37
CUAUAGCAAUAUUACGAUGC,-4.97 ± 0.38,-2.41 ± 0.2
UUCAAGCAAUAUUACGAGUG,-0.827 ± 0.06,-0.257 ± 0.077
GUUAAGCAAUAUUACGAAUA,-1.19 ± 0.25,-0.46 ± 0.32
UAUGAGCAAUAUUACGCCUU,-3.19 ± 0.29,-2.11 ± 0.34
GUCAAGCAAUAUUACGCUGU,-3.26 ± 0.13,-2.42 ± 0.19
GUUCAGCAAUAUUACGUUUA,-1.21 ± 0.11,-0.233 ± 0.09
ACGAAGCAAUAUUACGCCUU,-2.57 ± 0.14,-0.89 ± 0.13
GUGUAGCAAUAUUACGCCCG,-2.51 ± 0.35,-0.74 ± 0.23
GUCCAGCAAUAUUACGCCAC,-2.51 ± 0.44,–
GGAAAGCAAUAUUACGGUUC,-3.33 ± 0.43,-2.23 ± 0.49
CGAAAGCAAUAUUACGCGCU,-2.08 ± 0.13,-1.6 ± 0.12
GUUAAGCAAUAUUACGCUGC,-3.43 ± 0.33,-1.49 ± 0.32
ACAAAGCAAUAUUACGAUGG,-1.44 ± 0.08,-0.402 ± 0.1
UAUCAGCAAUAUUACGCAAG,-0.949 ± 0.074,0.273 ± 0.097
ACUGAGCAAUAUUACGUAUA,-2.58 ± 0.2,-1.97 ± 0.25
AAUAAGCAAUAUUACGCUAU,-2.74 ± 0.16,-2.24 ± 0.18
UGCCAGCAAUAUUACGGCGU,-3.04 ± 0.16,-3.16 ± 0.27
CAACAGCAAUAUUACGCGUG,-4.02 ± 0.22,-3.31 ± 0.16
GCCGAGCAAUAUUACGACGA,-1.34 ± 0.11,-0.792 ± 0.098
UGAAAGCAAUAUUACGGAUU,-1.99 ± 0.17,-1.09 ± 0.18
UGACAGCAAUAUUACGCGAG,-2.36 ± 0.11,-2.06 ± 0.077
AGUUAGCAAUAUUACGUCAC,–,-0.825 ± 0.31
GGCAAGCAAUAUUACGCUUG,-3.26 ± 0.2,-3.49 ± 0.34

Sequence,self-splicing fitness (ln) (30 °C),self-splicing fitness (ln) (37 °C)
ACUGAGCAAUAUUACGUUAC,-3.95 ± 0.3,-2.9 ± 0.38
UUCUAGCAAUAUUACGCUGC,–,-2.1 ± 0.38
GGUCAGCAAUAUUACGGGAC,-1.72 ± 0.15,-2.96 ± 0.4
UAUGAGCAAUAUUACGUCAG,-2.82 ± 0.14,-2.51 ± 0.2
UUUAAGCAAUAUUACGUUGC,-3.26 ± 0.43,-2.97 ± 0.38
UAUUAGCAAUAUUACGGGCC,-2.84 ± 0.42,–
UCUUAGCAAUAUUACGGUCG,-0.895 ± 0.16,-1.37 ± 0.33
UACAAGCAAUAUUACGCUAG,-2.16 ± 0.11,-1.13 ± 0.11
GUGUAGCAAUAUUACGUGUG,-3.21 ± 0.18,-1.69 ± 0.15
CCUAAGCAAUAUUACGAGGC,-3.32 ± 0.15,-3.61 ± 0.22
GGGGAGCAAUAUUACGUCCA,-0.767 ± 0.12,-0.145 ± 0.22
GUCAAGCAAUAUUACGGCCG,-2.31 ± 0.4,–
AGAGAGCAAUAUUACGAGUC,–,-2.23 ± 0.29
CAAAAGCAAUAUUACGUGCG,-1 ± 0.051,-0.35 ± 0.063
GACGAGCAAUAUUACGAAGA,-3.31 ± 0.27,–
UCAAAGCAAUAUUACGGGCA,-0.629 ± 0.063,-0.273 ± 0.069
CGGUAGCAAUAUUACGCACG,-2.85 ± 0.21,-1.59 ± 0.26
ACACAGCAAUAUUACGAUGA,-0.664 ± 0.048,-0.444 ± 0.057
UACAAGCAAUAUUACGGUAU,-3.83 ± 0.21,-2.54 ± 0.16
CGCCAGCAAUAUUACGUAUG,-0.516 ± 0.055,-0.0225 ± 0.074
AACAAGCAAUAUUACGUGAG,-1.74 ± 0.05,-1.01 ± 0.067
UCGUAGCAAUAUUACGACUC,–,-1.34 ± 0.31
CUUUAGCAAUAUUACGACGU,-3.69 ± 0.38,-1.86 ± 0.3
ACUCAGCAAUAUUACGGUGU,-2.56 ± 0.085,-1.34 ± 0.079
AUAUAGCAAUAUUACGUCCA,-1.87 ± 0.34,-0.0483 ± 0.29

Sequence,self-splicing fitness (ln) (30 °C),self-splicing fitness (ln) (37 °C)
GUACAGCAAUAUUACGCUGU,-3.5 ± 0.16,-3 ± 0.21
CGCUAGCAAUAUUACGAGUG,-2.91 ± 0.16,-3.22 ± 0.17
CGAAAGCAAUAUUACGUCGU,-3.33 ± 0.14,-2.36 ± 0.18
CUACAGCAAUAUUACGAAGU,-4.24 ± 0.29,-2.52 ± 0.19
CCAUAGCAAUAUUACGGCCA,-3.07 ± 0.37,-3.3 ± 0.42
CUUCAGCAAUAUUACGAUAC,-3.22 ± 0.19,-2.14 ± 0.33
CCUAAGCAAUAUUACGAAGG,-3.55 ± 0.16,-2.9 ± 0.2
AAUCAGCAAUAUUACGAUUU,-1.8 ± 0.076,-0.714 ± 0.086
GACGAGCAAUAUUACGACCU,-2.01 ± 0.15,0.0378 ± 0.16
GCCGAGCAAUAUUACGCUAU,-2.6 ± 0.29,-1.75 ± 0.15
GAUUAGCAAUAUUACGAUCA,-0.826 ± 0.21,-0.493 ± 0.19
ACCCAGCAAUAUUACGAUAG,-3.3 ± 0.1,-1.78 ± 0.1
GUUUAGCAAUAUUACGGAGC,–,-2.99 ± 0.44
UAAUAGCAAUAUUACGGAAC,-3.01 ± 0.2,-0.714 ± 0.16
CAGAAGCAAUAUUACGGAUA,-2.48 ± 0.13,-1.43 ± 0.11
CUCGAGCAAUAUUACGCAUU,-3.59 ± 0.3,–
CGGGAGCAAUAUUACGUGCA,-3.02 ± 0.27,-2.29 ± 0.22
UAGAAGCAAUAUUACGAAUG,-0.651 ± 0.071,-0.298 ± 0.09
CUUUAGCAAUAUUACGGAUA,-3.21 ± 0.42,-2.7 ± 0.34
UGACAGCAAUAUUACGUCCC,-0.969 ± 0.17,-1.51 ± 0.36
AAGGAGCAAUAUUACGAAAG,-2.93 ± 0.21,–
GAGAAGCAAUAUUACGCGCU,-2.03 ± 0.13,-1.49 ± 0.13
GACGAGCAAUAUUACGAUGC,-3.82 ± 0.44,-0.275 ± 0.21
GGGCAGCAAUAUUACGUUUA,-1.09 ± 0.069,-0.227 ± 0.094
